Results taken from the supplement of paper PMC9170038.

Tested on: MS2 coat protein
Test: apparent KD of MS2 coat protein; designed switch direction (-1 OFF switch, 1 ON switch): -1; higher = weaker reporter binding
How it was run: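 For each design, the apparent KD is the median over clusters of curves fitted to normalised cluster fluorescence. Clusters held RNA switches with common flanks, transcribed on Illumina chips by stalled E. coli RNA polymerase. These were titrated with SNAP-549-labelled MS2 coat protein, doubling from 0.7 or 1.5 nM to 3 µM, without input, with 200 uM small-molecule ligand, or with an oligonucleotide input.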

[1] = Eterna round: R95, input ligand: microRNA oligo, concentration not stated
[2] = input ligand: microRNA oligo, concentration not stated

Sequence: AGCAGACGAGGAUAUAAAUUUAAAUACAUGAGGAUCACCCAUGUAUAAAUGUAUUUAAAUUUAGAAGGCGUCUGCU [E5/12-A1] (Eterna round: R97, puzzle: Exclusion 5)
- apparent KD of MS2 coat protein (input ligand: FMN 200 uM): 793 nM
- apparent KD of MS2 coat protein (input ligand: none): 710 nM

Sequence: AGCAGACGAGGAUAUAGAUUUGAUAACAUGAGGAUCACCCAUGUGAUCGAUAGAUCAGAUUUAGAAGGCGUCUGCU [E5/8-A1] (Eterna round: R97, puzzle: Exclusion 5)
- apparent KD of MS2 coat protein (input ligand: FMN 200 uM): 412 nM
- apparent KD of MS2 coat protein (input ligand: none): 525 nM

Sequence: AGCAGACGAGGAUAUGAUAAUUAAUACAUGAGGAUCACCCAUGUAAUACUGAUCGAUAGAUCAGAAGGCGUCUGCU [E5/3-A2] (Eterna round: R97, puzzle: Exclusion 5)
- apparent KD of MS2 coat protein (input ligand: FMN 200 uM): 14.7 nM
- apparent KD of MS2 coat protein (input ligand: none): 16.4 nM

Sequence: AGCAUGCUAGGAUAUACGAAACAUUAGGGUUCUUUGUAUAAACAUGAGGAUCACCCAUGUAGAAGGAGCGUGCA [Mat - Exclusion 2 - Mod of Hyphema - D97] (puzzle: Exclusion 2)
- apparent KD of MS2 coat protein [1]: 40.9 nM

Sequence: AGCCAAGCAGGAUAUGCCCGGAAUAACAUGAGGAUCACCCAUGUGACCGAUUGAUGUUCUGCAGAAGGGCUUGGAA [Erxesoan mod] (Eterna round: R97, puzzle: Exclusion 5)
- apparent KD of MS2 coat protein (input ligand: FMN 200 uM): 214 nM
- apparent KD of MS2 coat protein (input ligand: none): 28.8 nM

Sequence: AGCCUACAUGAGGAUCACCCAUGUCAGGAUAUCUCGCGACGUGUCGGGAACACGUUGCAGAGAAGGGACUCGGG [Labezadi] (puzzle: Exclusion 1)
- apparent KD of MS2 coat protein [1]: 51.8 nM

Sequence: AGCCUAGCAGGAUAUGCCCGGGAUAACAUGAGGAUCACCCAUGUGACCGAUUGAUGUCUUGCAGAAGGGCUAGGGA [JL-EX5-4.02 ViennaUCT mod] (Eterna round: R97, puzzle: Exclusion 5)
- apparent KD of MS2 coat protein (input ligand: FMN 200 uM): 58.4 nM
- apparent KD of MS2 coat protein (input ligand: none): 15.7 nM

Sequence: AGCGAAUAGCUAGGAUAUGAGAAUAGAUAGAGCUCAGAAGGAGCACAUGAGGAUCACCCAUGUAAAGUCUUGAGGCUGCGUGGU [Prohibition 16 - Jieux - Exclusion NG 1] (Eterna round: R96, puzzle: Exclusion NG 1)
- apparent KD of MS2 coat protein (input ligand: FMN 200 uM): 79.5 nM
- apparent KD of MS2 coat protein [2]: 27.2 nM
- apparent KD of MS2 coat protein (input ligand: none): 66.3 nM

Sequence: AGCGAGACAGGAUAUACUUGAGGAUCACCCAAGUCACAAAGGGUCUCACUCUUCACUAGUAGAAGGGUCGUGUA [Lereer] (Eterna round: R97, puzzle: Exclusion 3)
- apparent KD of MS2 coat protein (input ligand: FMN 200 uM): 24.1 nM
- apparent KD of MS2 coat protein (input ligand: none): 18.7 nM

Sequence: AGCGAGGCAGGAUAUACAUGAGGAUCACCCAUGUGCUUGUAUGGCGUGGAACAUCGUAGUAGAAGGGCCGCGCC [EX3 #77] (Eterna round: R97, puzzle: Exclusion 3)
- apparent KD of MS2 coat protein (input ligand: FMN 200 uM): 28.4 nM
- apparent KD of MS2 coat protein (input ligand: none): 22.2 nM

Sequence: AGCGAGGUAGGAUAUACAUGAGGAUCACCCAUGUGCUUGCAUGGCGUGGAAUGUCGAGGUAGAAGGGCCAUGCC [EX3 #72] (Eterna round: R97, puzzle: Exclusion 3)
- apparent KD of MS2 coat protein (input ligand: FMN 200 uM): 33.2 nM
- apparent KD of MS2 coat protein (input ligand: none): 27.2 nM

Sequence: AGCGCCAUCGUGAGAUGGCGUAUUACAUGAGGAUCACCCAUGUAGGAUAUCGAUUGCUUUGCAGUCGAGAAGGGCAUGUCCCAG [JL ENG3 3.80 Mod J] (Eterna round: R96, puzzle: Exclusion NG 3)
- apparent KD of MS2 coat protein (input ligand: FMN 200 uM): 23 nM
- apparent KD of MS2 coat protein [2]: 19.2 nM
- apparent KD of MS2 coat protein (input ligand: none): 24.1 nM

Sequence: AGCUAGUCAGGAUAUACGAACACCUCAAAAGAGGUGAAGGGACAUGAGGAUCACCCAUGUAGAAGGGACUAGCA [Mat - Exclusion 2 - JL mod - D29] (Eterna round: R96, puzzle: Exclusion 2)
- apparent KD of MS2 coat protein (input ligand: FMN 200 uM): 167 nM
- apparent KD of MS2 coat protein [2]: 21.3 nM
- apparent KD of MS2 coat protein (input ligand: none): 24.3 nM

Sequence: AGCUGACGAGGAUAUACAUGAGGAUCACCCAUGUUGGUCAAGCGACUUCGGUCGCAAUGUAGAAGGCGUCAGCU [E3/8-A4] (Eterna round: R97, puzzle: Exclusion 3)
- apparent KD of MS2 coat protein (input ligand: FMN 200 uM): 263 nM
- apparent KD of MS2 coat protein (input ligand: none): 430 nM

Sequence: AGCUGACGAGGAUAUACAUGAGGAUCACCCAUGUUGGUUCAGCGACGAUAGUCGCAAUGUAGAAGGCGUCAGCU [E3/9-A1] (Eterna round: R97, puzzle: Exclusion 3)
- apparent KD of MS2 coat protein (input ligand: FMN 200 uM): 77.4 nM
- apparent KD of MS2 coat protein (input ligand: none): 496 nM

Sequence: AGCUGUGGCCAAGGAUAUCCAGCCUUAAAUACCGACGUAUAGUCGGACAUGAGGAUCACCCAUGUGGAGAAGGUGGUCUCAGCA [Eli eng2 - 040] (Eterna round: R96, puzzle: Exclusion NG 2)
- apparent KD of MS2 coat protein (input ligand: FMN 200 uM): 109 nM
- apparent KD of MS2 coat protein [2]: 45 nM
- apparent KD of MS2 coat protein (input ligand: none): 56.8 nM

Sequence: AGCUGUGGCCGAGGAUAUCACGAACCAUGGAAAACCAUGGAAACUCUACAUGAGGAUCACCCAUGUGAGAAGGCGGUCUCAGCA [Eli eng2 - 022] (Eterna round: R96, puzzle: Exclusion NG 2)
- apparent KD of MS2 coat protein (input ligand: FMN 200 uM): 87.7 nM
- apparent KD of MS2 coat protein [2]: 21.6 nM
- apparent KD of MS2 coat protein (input ligand: none): 35.2 nM

Sequence: AGCUGUGGCCGAGGAUAUCCAACCUUAAAUACCGACGUAUAGUCGGACAUGAGGAUCACCCAUGUGGAGAAGGCGGUCUCAGCA [Eli eng2 - 039] (Eterna round: R96, puzzle: Exclusion NG 2)
- apparent KD of MS2 coat protein (input ligand: FMN 200 uM): 62.5 nM
- apparent KD of MS2 coat protein [2]: 28 nM
- apparent KD of MS2 coat protein (input ligand: none): 47.1 nM

Sequence: AGCUGUGGCCGAGGAUAUCCACAUGAGGAUCACCCAUGUUGAUACGCCGUUAGGCGAUAUAGAAGGGAGAAGGCGGUCUCAGCA [Eli eng2 - 050] (Eterna round: R96, puzzle: Exclusion NG 2)
- apparent KD of MS2 coat protein (input ligand: FMN 200 uM): 7.84 nM
- apparent KD of MS2 coat protein [2]: 7.26 nM
- apparent KD of MS2 coat protein (input ligand: none): 13.7 nM

Sequence: AGCUGUGGCCGAGGAUAUCUAAACUCAAUAACCGAAAUAUAAUCGGACAUGAGGAUCACCCAUGUAGAGAAGGCGGUCUCAGCA [Eli eng2 - 081] (Eterna round: R96, puzzle: Exclusion NG 2)
- apparent KD of MS2 coat protein [2]: 28 nM

Sequence: AGCUGUGGCCGAGGAUAUCUAUCCAAUAUAACCGAAAUAUAAUCGGACAUGAGGAUCACCCAUGUAGAGAAGGCGGUCUCAGCA [Eli eng2 - 093] (Eterna round: R96, puzzle: Exclusion NG 2)
- apparent KD of MS2 coat protein [2]: 15.3 nM

Sequence: AGCUGUGGCCGAGGAUAUCUAUCCCAAAUAACCGAAAUAUAAUCGGACAUGAGGAUCACCCAUGUAGAGAAGGCGGUCUCAGCA [Eli eng2 - 088] (Eterna round: R96, puzzle: Exclusion NG 2)
- apparent KD of MS2 coat protein [2]: 20.4 nM

Sequence: AGCUGUGGCCGAGGAUAUCUGUUCCAUAUAACCGAAAUAUAAUCGGACAUGAGGAUCACCCAUGUAGAGAAGGCGGUCUCAGCA [Eli eng2 - 100] (Eterna round: R96, puzzle: Exclusion NG 2)
- apparent KD of MS2 coat protein [2]: 18.8 nM

Sequence: AGCUGUGGCCGAGGAUAUGACAUGAGGAUCACCCAUGUACACGAUUAGGCCUGGUAACAGGCUCAUCAGAAGGCGGUCUCAGCA [Eli eng2 - 017] (Eterna round: R96, puzzle: Exclusion NG 2)
- apparent KD of MS2 coat protein (input ligand: FMN 200 uM): 9.77 nM
- apparent KD of MS2 coat protein [2]: 10.4 nM
- apparent KD of MS2 coat protein (input ligand: none): 13 nM

Sequence: AGCUGUGGCCGAGGAUAUGACAUGAGGAUCACCCAUGUACAUAAUUAGGCCUGGUAACAGGCUCGUCAGAAGGCGGUCUCAGCA [Eli eng2 - 007] (Eterna round: R96, puzzle: Exclusion NG 2)
- apparent KD of MS2 coat protein (input ligand: FMN 200 uM): 12.3 nM
- apparent KD of MS2 coat protein [2]: 8.31 nM
- apparent KD of MS2 coat protein (input ligand: none): 12.6 nM

Sequence: AGCUGUGGCCGAGGAUAUGACAUGAGGAUCACCCAUGUACAUAAUUAGGCCUGGUAACAGGCUCUUCAGAAGGCGGUCUCAGCA [Eli eng2 - 006] (Eterna round: R96, puzzle: Exclusion NG 2)
- apparent KD of MS2 coat protein (input ligand: FMN 200 uM): 7.27 nM
- apparent KD of MS2 coat protein [2]: 6.45 nM
- apparent KD of MS2 coat protein (input ligand: none): 11.8 nM

Sequence: AGCUGUGGCCGAGGAUAUGACAUGAGGAUCACCCAUGUACGUAAUUAGGCCUGGUAACAGGCUCGUCAGAAGGCGGUCUCAGCA [Eli eng2 - 008] (Eterna round: R96, puzzle: Exclusion NG 2)
- apparent KD of MS2 coat protein (input ligand: FMN 200 uM): 12.2 nM
- apparent KD of MS2 coat protein [2]: 7.43 nM
- apparent KD of MS2 coat protein (input ligand: none): 15.3 nM

Sequence: AGCUGUGGCCGAGGAUAUUACGAACCAUGGAAAACCAUGGAAACUCUACAUGAGGAUCACCCAUGUAAGAAGGCGGUCUCAGCA [Eli eng2 - 024] (Eterna round: R96, puzzle: Exclusion NG 2)
- apparent KD of MS2 coat protein (input ligand: FMN 200 uM): 47.5 nM
- apparent KD of MS2 coat protein [2]: 11.7 nM
- apparent KD of MS2 coat protein (input ligand: none): 16.4 nM

Sequence: AGCUUUUUGUUUUUGGGUGACAUGAGGAUCACCCAUGUCUUAUGGGCCCAGUAGUAGUAAGAUAGAAGGGACCCACG [-20.8, -41.27, a 31%] (Eterna round: R97, puzzle: Sensor, turn-off variant 1)
- apparent KD of MS2 coat protein (input ligand: FMN 200 uM): 639 nM
- apparent KD of MS2 coat protein (input ligand: none): 731 nM

Sequence: AGGAGUAGUAAGGAUAUAGCGGACUAGUCGUCGUUAGAAGGUACUACAUGAGGAUCACCCAUGUUGACCUGAGC [EX6 B.14] (Eterna round: R97, puzzle: Exclusion 6)
- apparent KD of MS2 coat protein (input ligand: FMN 200 uM): 46.5 nM
- apparent KD of MS2 coat protein (input ligand: none): 19.6 nM

Sequence: AGGAGUGAAGGAUAUACAUGAGGAUCACCCAUGUGGGAGGAAAGAGGUGAUGGAGAUAGUAGAAGGUCAGGAUG [JR_Exclusion3_Sub005] (puzzle: Exclusion 3)
- apparent KD of MS2 coat protein (Eterna round: R95, input ligand: FMN 200 uM): 99.9 nM
- apparent KD of MS2 coat protein [1]: 93.9 nM
- apparent KD of MS2 coat protein (Eterna round: R95, input ligand: none): 116 nM

Sequence: AGGCUGUCAGGAUAUCUGCGCCGUGGUGCGCGGCGUUAUAAAGAGAAGGGACAUGAGGAUCACCCAUGUCCUCA [EX4 B.25] (Eterna round: R97, puzzle: Exclusion 4)
- apparent KD of MS2 coat protein (input ligand: FMN 200 uM): 79.7 nM
- apparent KD of MS2 coat protein (input ligand: none): 19.4 nM

Sequence: AGGGAACAUGAGGAUCACCCAUGUGAGGAUAUACAAAAGAAAAGAAAAGAAAGAAGAAGUAGAAGGUACAAGAA [Neferka] (Eterna round: R96, puzzle: Exclusion 1)
- apparent KD of MS2 coat protein (input ligand: FMN 200 uM): 32.4 nM
- apparent KD of MS2 coat protein [2]: 26.9 nM
- apparent KD of MS2 coat protein (input ligand: none): 32.8 nM

Sequence: AGGGAACCCAAGGAUAUUGAGAGUUAAGCCACUUAAGAAGGUGGUACAUGAGGAUCACCCAUGUCCCUUGCAGA [Eternabot (L1) Solution 6] (Eterna round: R97, puzzle: Exclusion 6)
- apparent KD of MS2 coat protein (input ligand: FMN 200 uM): 38.3 nM
- apparent KD of MS2 coat protein (input ligand: none): 41.6 nM
